In paper PMC9913352, “The Rosetta Stone Hypothesis-Based Interaction of the Tumor Suppressor Proteins Nit1 and Fhit” (Cells, 2023):

Target: the molecule itself
Experiment: SEC; untagged proteins after on-column TEV cleavage, Superdex 200-HR, 50 mM Tris/HCl pH 8.0, 100 mM NaCl, 2 mM MgCl2, 0.3 mL/min; calibrated with marker proteins

B1: untagged human Fhit (natural protein)
chain: not shown
notes: Fhit (fragile histidine triad), human, 147 amino acids, ~17 kDa; also called fragile histidine triad
stoichiometry N: 2
